Data published in patent US20240117061A1.
pEC50: −log10 of the molar value. Like-named read-outs stand apart in the source and are kept apart here.

Legend:
[1] = biological target: recombinant human BCMA-his fusion protein (ACRO Biosystem, Cat. No. BCA-H522y) (human) (UniProt Q02223); experiment: competitive ELISA, coated huBCMA-his, competitor 83A10-biotin
[2] = biological target: recombinant human BCMA-his fusion protein (ACRO Biosystem, Cat. No. BCA-H522y) (human) (UniProt Q02223); experiment: ELISA, coated antigen
[3] = biological target: human BCMA on cells (NCI-H929, U266B1, HEK293 huBCMA) (human) (UniProt Q02223); experiment: flow cytometry on NCI-H929 cells
Sequence of human BCMA on cells (NCI-H929, U266B1, HEK293 huBCMA) (human) (Q02223 whole entry, the tested form may be a part): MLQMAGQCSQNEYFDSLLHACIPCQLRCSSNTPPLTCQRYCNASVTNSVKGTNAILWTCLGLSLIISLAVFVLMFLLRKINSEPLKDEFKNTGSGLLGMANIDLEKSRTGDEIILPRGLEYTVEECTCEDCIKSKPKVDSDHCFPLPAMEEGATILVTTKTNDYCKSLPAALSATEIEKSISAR

[4] = biological target: recombinant human BCMA-his fusion protein (ACRO Biosystem, Cat. No. BCA-H522y) (human) (UniProt Q02223); experiment: competitive ELISA, coated huBCMA-his, competitor 83A10-biotin; remark: listed apart in the source

Sequence of recombinant human BCMA-his fusion protein (ACRO Biosystem, Cat. No. BCA-H522y) (human) (Q02223 1-54): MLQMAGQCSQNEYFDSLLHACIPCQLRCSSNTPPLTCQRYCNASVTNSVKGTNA
Sequence of positive control antibody 83A10 (VH): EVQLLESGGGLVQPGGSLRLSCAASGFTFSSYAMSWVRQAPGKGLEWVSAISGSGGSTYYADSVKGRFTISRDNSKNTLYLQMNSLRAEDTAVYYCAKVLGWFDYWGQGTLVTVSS
Sequence of positive control antibody 83A10 (VL): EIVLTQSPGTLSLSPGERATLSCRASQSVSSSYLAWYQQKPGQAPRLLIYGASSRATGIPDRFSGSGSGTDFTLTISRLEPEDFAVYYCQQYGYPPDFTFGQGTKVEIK

- IC50 [1]: 9.8 µg/mL
- pEC50 [2]: 10.60
- pEC50 [3]: 8.06
- IC50 [4]: 15 µg/mL
Substance: positive control antibody 83A10
